Experimental findings from publication doi:10.1101/2024.01.30.575082 (bioRxiv, 2024) are described below.

The data set deals with the molecule itself. Description: crystal structure.

B1: Shethna Protein II (FeSII) from Azotobacter vinelandii (natural protein, UniProt Q44501 1-122, looked up)
chain: MATIYFSSPLMPHNKKVQAVAGKRSTLLGVAQENGVKIPFECQDGNCGSCLVKITHLDGERIKGMLLTDKERNVLKSVGKLPKSEEERAAVRDLPPTYRLACQTIVTDEDLLVEFTGEPGGA
As to B1, the binding result is given as “binds”.
